Data published in patent US20150203577A1 (Chugai, published 2015).

Key:
[1] = biological target: T1, mouse FcγRII extracellular domain, C-terminally His-tagged (mouse, UniProt P08101 30-210); assay: SPR Biacore T200, KD ratio
T1 construct: the whole entry is named; also called mFcγRII; mFcgRII
T1 sequence: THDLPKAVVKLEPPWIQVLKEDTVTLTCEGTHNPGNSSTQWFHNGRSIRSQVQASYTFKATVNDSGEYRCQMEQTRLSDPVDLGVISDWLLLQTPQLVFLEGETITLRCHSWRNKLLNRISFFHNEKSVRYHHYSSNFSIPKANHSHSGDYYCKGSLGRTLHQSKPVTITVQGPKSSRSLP
Excerpt: (§1) The antibody H chain variable region used was the variable region H237 (SEQ ID NO: 1) of the H chain VH3-IgG1 of the anti-IL-6 receptor antibody Fv4-IgG1 described in WO2009/125825. The antibody L chain commonly used was the L chain MRAL-k0 (SEQ ID NO: 2) of the anti-IL-6 receptor antibody tocilizumab. […] The resulting variant groups were designated as MB397 variants and MB390 variants, respectively. These variants were expressed and purified by the method of Reference Example 1 and evaluated for their binding to mFcγRII and mFcγRIII by the method of Reference Example 2 using Biacore T200.
(§2) Each altered antibody was analyzed for its interaction with each Fcγ receptor prepared above using Biacore T100 (GE Healthcare Japan Corp.), Biacore T200 (GE Healthcare Japan Corp.), Biacore A100, or Biacore 4000. The running buffer used was HBS-EP+ (GE Healthcare Japan Corp.). The assay temperature was set to 25° C. The sensor chips used were chips prepared by immobilizing Protein L (ACTIGEN or BioVision) onto Series S Sensor Chip CM5 (GE Healthcare Japan Corp.) or Series S Sensor Chip CM4 (GE Healthcare Japan Corp.) by the amine coupling method.
(§3) In order to calculate the KD value of each altered antibody for FcγR, kinetic analysis was conducted according to the following method: first, the antibody of interest was captured onto any of these chips and allowed to interact with mFcγR diluted with a running buffer. For the obtained sensorgram, the assay results were globally fit into the 1:1 Langmuir binding model using Biacore Evaluation Software to calculate an association rate constant ka (L/mol/s) and a dissociation rate constant kd (1/s). From these values, the dissociation constant KD (mol/L) was calculated.

[2] = biological target: T2, mouse FcγRIII extracellular domain, C-terminally His-tagged (mouse, UniProt P08508 31-215); assay: SPR Biacore T200, KD ratio
T2 construct: the whole entry is named; also called mFcγRIII; mFcgRIII
T2 chain: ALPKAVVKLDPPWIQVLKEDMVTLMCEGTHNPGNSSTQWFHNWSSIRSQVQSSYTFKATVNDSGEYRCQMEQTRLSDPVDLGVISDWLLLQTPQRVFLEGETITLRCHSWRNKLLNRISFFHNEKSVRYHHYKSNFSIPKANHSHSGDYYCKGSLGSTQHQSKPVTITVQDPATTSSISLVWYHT
Excerpt: as §1, §2, §3

Binder	relative mFcγRII-binding activity (MB390 = 1) [1] [fold]	relative mFcγRII-binding activity (mIgG1 = 1) [1] [fold]	relative mFcγRIII-binding activity (MB390 = 1) [2] [fold]	relative mFcγRIII-binding activity (mIgG1 = 1) [2] [fold]
H237-MB478/MRAL-k0 (antibody, mouse IgG1, kappa, copies: 2 + 2) heavy: QVQLQESGPGLVKPSETLSLTCAVSGHSISHDHAWSWVRQPPGEGLEWIGFISYSGITNYNPSLQGRVTISRDNSKNTLYLQMNSLRAEDTAVYYCARSLARTTAMDYWGEGTLVTVSSAKTTPPSVYPLAPGSAAQTNSMVTLGCLVKGYFPEPVTVTWNSGSLSSGVHTFPAVLQSDLYTLSSSVTVPSSTWPSETVTCNVAHPASSTKVDKKIVPRDCGCKPCICEPNEVEDVFIFPPKPKDVLTITLTPKVTCVVVDISKDDPEVQFSWFVDDVEVHTAQTQPREELFNSTFRSVSELPIMHQDWLNGKEFKCRVNSAAFPAPIEKTISKTKGRPKAPQVYTIPPPKEQMAKDKVSLTCMITDFFPEDITVEWQWNGQPAENYKNTQPIMDTDGSYFVYSKLNVQKSNWEAGNTFTCSVLHEGLHNHHTEKSLSHSPGK light: not shown	0.49	254	0.39	4.7
H237-MB479/MRAL-k0 (antibody, mouse IgG1, kappa, copies: 2 + 2) heavy: QVQLQESGPGLVKPSETLSLTCAVSGHSISHDHAWSWVRQPPGEGLEWIGFISYSGITNYNPSLQGRVTISRDNSKNTLYLQMNSLRAEDTAVYYCARSLARTTAMDYWGEGTLVTVSSAKTTPPSVYPLAPGSAAQTNSMVTLGCLVKGYFPEPVTVTWNSGSLSSGVHTFPAVLQSDLYTLSSSVTVPSSTWPSETVTCNVAHPASSTKVDKKIVPRDCGCKPCICEPNEVEDVFIFPPKPKDVLTITLTPKVTCVVVDISKDDPEVQFSWFVDDVEVHTAQTQPREEQFNSTFRSVSELPIMHQDWLNGKEFKCRVNSDAFPAPIEKTISKTKGRPKAPQVYTIPPPKEQMAKDKVSLTCMITDFFPEDITVEWQWNGQPAENYKNTQPIMDTDGSYFVYSKLNVQKSNWEAGNTFTCSVLHEGLHNHHTEKSLSHSPGK light: not shown	1.41	734	1.16	13.8
H237-MB492/MRAL-k0 (antibody, mouse IgG1, kappa, copies: 2 + 2) heavy: QVQLQESGPGLVKPSETLSLTCAVSGHSISHDHAWSWVRQPPGEGLEWIGFISYSGITNYNPSLQGRVTISRDNSKNTLYLQMNSLRAEDTAVYYCARSLARTTAMDYWGEGTLVTVSSAKTTPPSVYPLAPGSAAQTNSMVTLGCLVKGYFPEPVTVTWNSGSLSSGVHTFPAVLQSDLYTLSSSVTVPSSTWPSETVTCNVAHPASSTKVDKKIVPRDCGCKPCICEPNEVEDVFIFPPKPKDVLTITLTPKVTCVVVDISKDDPEVQFSWFVDDVEVHTAQTQPREEQFNSTFRSVSELPIMHQDWLNGKEFKCRVDSAAFPAPIEKTISKTKGRPKAPQVYTIPPPKEQMAKDKVSLTCMITDFFPEDITVEWQWNGQPAENYKNTQPIMDTDGSYFVYSKLNVQKSNWEAGNTFTCSVLHEGLHNHHTEKSLSHSPGK light: not shown	1.19	622	0.92	10.9
H237-MB490/MRAL-k0 (antibody, mouse IgG1, kappa, copies: 2 + 2) heavy: QVQLQESGPGLVKPSETLSLTCAVSGHSISHDHAWSWVRQPPGEGLEWIGFISYSGITNYNPSLQGRVTISRDNSKNTLYLQMNSLRAEDTAVYYCARSLARTTAMDYWGEGTLVTVSSAKTTPPSVYPLAPGSAAQTNSMVTLGCLVKGYFPEPVTVTWNSGSLSSGVHTFPAVLQSDLYTLSSSVTVPSSTWPSETVTCNVAHPASSTKVDKKIVPRDCGCKPCICEPNEVEDVFIFPPKPKDVLTITLTPKVTCVVVDISKDDPEVQFSWFVDDVEVHTAQTQPREEQFNLTFRSVSELPIMHQDWLNGKEFKCRVNSAAFPAPIEKTISKTKGRPKAPQVYTIPPPKEQMAKDKVSLTCMITDFFPEDITVEWQWNGQPAENYKNTQPIMDTDGSYFVYSKLNVQKSNWEAGNTFTCSVLHEGLHNHHTEKSLSHSPGK light: not shown	2.16	1130	2.9	34.6
H237-MB493/MRAL-k0 (antibody, mouse IgG1, kappa, copies: 2 + 2) heavy: QVQLQESGPGLVKPSETLSLTCAVSGHSISHDHAWSWVRQPPGEGLEWIGFISYSGITNYNPSLQGRVTISRDNSKNTLYLQMNSLRAEDTAVYYCARSLARTTAMDYWGEGTLVTVSSAKTTPPSVYPLAPGSAAQTNSMVTLGCLVKGYFPEPVTVTWNSGSLSSGVHTFPAVLQSDLYTLSSSVTVPSSTWPSETVTCNVAHPASSTKVDKKIVPRDCGCKPCICEPNEVEDVFIFPPKPKDVLTITLTPKVTCVVVDISKDDPEVQFSWFVDDVEVHTAQTQPREEQFNLTFRSVSELPIMHQDWLNGKEFKCRVDSAAFPAPIEKTISKTKGRPKAPQVYTIPPPKEQMAKDKVSLTCMITDFFPEDITVEWQWNGQPAENYKNTQPIMDTDGSYFVYSKLNVQKSNWEAGNTFTCSVLHEGLHNHHTEKSLSHSPGK light: not shown	2.73	1420	3.77	44.9
H237-MB491/MRAL-k0 (antibody, mouse IgG1, kappa, copies: 2 + 2) heavy: QVQLQESGPGLVKPSETLSLTCAVSGHSISHDHAWSWVRQPPGEGLEWIGFISYSGITNYNPSLQGRVTISRDNSKNTLYLQMNSLRAEDTAVYYCARSLARTTAMDYWGEGTLVTVSSAKTTPPSVYPLAPGSAAQTNSMVTLGCLVKGYFPEPVTVTWNSGSLSSGVHTFPAVLQSDLYTLSSSVTVPSSTWPSETVTCNVAHPASSTKVDKKIVPRDCGCKPCICEPNEVEDVFIFPPKPKDVLTITLTPKVTCVVVDISKDDPEVQFSWFVDDVEVHTAQTQPREEQFNMTFRSVSELPIMHQDWLNGKEFKCRVNSAAFPAPIEKTISKTKGRPKAPQVYTIPPPKEQMAKDKVSLTCMITDFFPEDITVEWQWNGQPAENYKNTQPIMDTDGSYFVYSKLNVQKSNWEAGNTFTCSVLHEGLHNHHTEKSLSHSPGK light: not shown	0.92	478	1.05	12.4
H237-MB480/MRAL-k0 (antibody, mouse IgG1, kappa, copies: 2 + 2) heavy: QVQLQESGPGLVKPSETLSLTCAVSGHSISHDHAWSWVRQPPGEGLEWIGFISYSGITNYNPSLQGRVTISRDNSKNTLYLQMNSLRAEDTAVYYCARSLARTTAMDYWGEGTLVTVSSAKTTPPSVYPLAPGSAAQTNSMVTLGCLVKGYFPEPVTVTWNSGSLSSGVHTFPAVLQSDLYTLSSSVTVPSSTWPSETVTCNVAHPASSTKVDKKIVPRDCGCKPCICEPNEVEDVFIFPPKPKDVLTITLTPKVTCVVVDISKDDPEVQFSWFVDDVEVHTAQTQPREEQFNSTFRSVSELPIMHQDWLNGKEFKCRVNSAAFPAPIERTISKTKGRPKAPQVYTIPPPKEQMAKDKVSLTCMITDFFPEDITVEWQWNGQPAENYKNTQPIMDTDGSYFVYSKLNVQKSNWEAGNTFTCSVLHEGLHNHHTEKSLSHSPGK light: not shown	0.98	511	0.85	10.2
